Test results taken from PMC4489804.

Target: DCP1-CFP (Arabidopsis thaliana) (UniProt Q9SJF3)
Assay: FRET or BRET; FRET acceptor photobleaching in transiently transfected Arabidopsis leaf epidermis cells; DCP1-CFP donor, YFP-gSPI or free YFP acceptor, 35S promoter; whole cells and stationary P-bodies measured

UniProt Q9SJF3, sequence (Q9SJF3 whole entry): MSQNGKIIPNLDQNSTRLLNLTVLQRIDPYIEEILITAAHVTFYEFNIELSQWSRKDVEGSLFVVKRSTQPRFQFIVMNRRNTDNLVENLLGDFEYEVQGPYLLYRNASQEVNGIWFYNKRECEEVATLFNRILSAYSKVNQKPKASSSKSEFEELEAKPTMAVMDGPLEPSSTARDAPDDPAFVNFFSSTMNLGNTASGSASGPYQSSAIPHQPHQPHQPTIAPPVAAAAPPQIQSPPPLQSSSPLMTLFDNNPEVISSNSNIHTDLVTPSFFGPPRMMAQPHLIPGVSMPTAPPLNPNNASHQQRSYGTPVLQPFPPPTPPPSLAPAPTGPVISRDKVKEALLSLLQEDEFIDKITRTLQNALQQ

FRET efficiency (FRETE), immobile P-bodies: 23%
FRET efficiency (FRETE), whole cells: 27%
Substance: YFP-tagged full-length genomic SPI, F4HZB2 1-3601
